Changes are numbered by the printed parent chain. In names and notes the source's numbering stands.
T1: human ICOS (human, UniProt Q9Y6W8 21-199)
T1 construct: whole, on cells
T1 sequence (looked up): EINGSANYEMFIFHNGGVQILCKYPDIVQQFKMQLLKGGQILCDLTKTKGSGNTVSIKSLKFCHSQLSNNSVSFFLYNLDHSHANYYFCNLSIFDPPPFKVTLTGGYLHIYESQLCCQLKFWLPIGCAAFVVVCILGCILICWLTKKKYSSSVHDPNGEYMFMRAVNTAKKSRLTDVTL

B1: ICOSL ECD with N52H/N57Y/Q100R/C198R (Table 18) (Fc fusion, not shown: a dimerising Fc or GST)
chain: DTQEKEVRAMVGSDVELSCACPEGSRFDLNDVYVYWQTSESKTVVTYHIPQHSSLEYVDSRYRNRALMSPAGMLRGDFSLRLFNVTPQDEQKFHCLVLSRSLGFQEVLSVEVTLHVAANFSVPVVSAPHSPSQDELTFTCTSINGYPRPNVYWINKTDNSLLDQALQNDTVFLNMRGLYDVVSVLRIARTPSVNIGCRIENVLLQQNLTVGSQTGNDIGERDKITENPVSTGEKNAAT
notes: Made in CHO cells; May be the same construct as m37
B2: ICOSL ECD Truncation #6 with N52H/N57Y/Q100R/F172S, Fc fusion (Fc fusion)
chain: DTQEKEVRAMVGSDVELSCACPEGSRFDLNDVYVYWQTSESKTVVTYHIPQHSSLEYVDSRYRNRALMSPAGMLRGDFSLRLFNVTPQDEQKFHCLVLSRSLGFQEVLSVEVTLHVAANFSVPVVSAPHSPSQDELTFTCTSINGYPRPNVYWINKTDNSLLDQALQNDTVSLNMRGLYDVVSVLRIARTPSVNIGCCIENVLLGGGGSGGGGSEPKSSDKTHTCPPCPAPEAEGAPSVFLFPPKPKDTLMISRTPEVTCVVVDVSHEDPEVKFNWYVDGVEVHNAKTKPREEQYNSTYRVVSVLTVLHQDWLNGKEYKCKVSNKALPAPIEKTISKAKGQPREPQVYTLPPSREEMTKNQVSLTCLVKGFYPSDIAVEWESNGQPENNYKTTPPVLDSDGSFFLYSKLTVDKSRWQQGNVFSCSVMHEALHNHYTQKSLSLSPG
notes: Made in CHO cells
B3: ICOSL ECD Truncation #4 with N52H/N57Y/Q100R/F172S and E200G, Fc fusion (Fc fusion)
chain: DTQEKEVRAMVGSDVELSCACPEGSRFDLNDVYVYWQTSESKTVVTYHIPQHSSLEYVDSRYRNRALMSPAGMLRGDFSLRLFNVTPQDEQKFHCLVLSRSLGFQEVLSVEVTLHVAANFSVPVVSAPHSPSQDELTFTCTSINGYPRPNVYWINKTDNSLLDQALQNDTVSLNMRGLYDVVSVLRIARTPSVNIGCCIGNVLLQQNGGGGSGGGGSEPKSSDKTHTCPPCPAPEAEGAPSVFLFPPKPKDTLMISRTPEVTCVVVDVSHEDPEVKFNWYVDGVEVHNAKTKPREEQYNSTYRVVSVLTVLHQDWLNGKEYKCKVSNKALPAPIEKTISKAKGQPREPQVYTLPPSREEMTKNQVSLTCLVKGFYPSDIAVEWESNGQPENNYKTTPPVLDSDGSFFLYSKLTVDKSRWQQGNVFSCSVMHEALHNHYTQKSLSLSPG
notes: Made in CHO cells; E200G is an additional mutation found later in the clone
B4: ICOSL ECD Truncation #7 with N52H/N57Y/Q100R/C198R and E90K/E111G (Fc fusion, not shown: a dimerising Fc or GST)
chain: DTQEKEVRAMVGSDVELSCACPEGSRFDLNDVYVYWQTSESKTVVTYHIPQHSSLEYVDSRYRNRALMSPAGMLRGDFSLRLFNVTPQDKQKFHCLVLSRSLGFQEVLSVGVTLHVAANFSVPVVSAPHSPSQDELTFTCTSINGYPRPNVYWINKTDNSLLDQALQNDTVFLNMRGLYDVVSVLRIARTPSVNIGCRIEN
notes: Made in CHO cells
B5: ICOSL ECD Truncation #5 with N52H/N57Y/Q100R/C198R (Fc fusion, not shown: a dimerising Fc or GST)
chain: DTQEKEVRAMVGSDVELSCACPEGSRFDLNDVYVYWQTSESKTVVTYHIPQHSSLEYVDSRYRNRALMSPAGMLRGDFSLRLFNVTPQDEQKFHCLVLSRSLGFQEVLSVEVTLHVAANFSVPVVSAPHSPSQDELTFTCTSINGYPRPNVYWINKTDNSLLDQALQNDTVFLNMRGLYDVVSVLRIARTPSVNIGCRIENVLLQQ
notes: Made in CHO cells
B6: ICOSL ECD Truncation #8 with N207G/L208G and N52H/N57Y/Q100R/F172S, Fc fusion (Fc fusion)
chain: DTQEKEVRAMVGSDVELSCACPEGSRFDLNDVYVYWQTSESKTVVTYHIPQHSSLEYVDSRYRNRALMSPAGMLRGDFSLRLFNVTPQDEQKFHCLVLSRSLGFQEVLSVEVTLHVAANFSVPVVSAPHSPSQDELTFTCTSINGYPRPNVYWINKTDNSLLDQALQNDTVSLNMRGLYDVVSVLRIARTPSVNIGCCIENVLLQQGGTGGGGSGGGGSEPKSSDKTHTCPPCPAPEAEGAPSVFLFPPKPKDTLMISRTPEVTCVVVDVSHEDPEVKFNWYVDGVEVHNAKTKPREEQYNSTYRVVSVLTVLHQDWLNGKEYKCKVSNKALPAPIEKTISKAKGQPREPQVYTLPPSREEMTKNQVSLTCLVKGFYPSDIAVEWESNGQPENNYKTTPPVLDSDGSFFLYSKLTVDKSRWQQGNVFSCSVMHEALHNHYTQKSLSLSPG
notes: Made in CHO cells
B7: ICOSL ECD Truncation #6 with N52H/N57Y/Q100R/C198R (Fc fusion, not shown: a dimerising Fc or GST)
chain: DTQEKEVRAMVGSDVELSCACPEGSRFDLNDVYVYWQTSESKTVVTYHIPQHSSLEYVDSRYRNRALMSPAGMLRGDFSLRLFNVTPQDEQKFHCLVLSRSLGFQEVLSVEVTLHVAANFSVPVVSAPHSPSQDELTFTCTSINGYPRPNVYWINKTDNSLLDQALQNDTVFLNMRGLYDVVSVLRIARTPSVNIGCRIENVLL
notes: Made in CHO cells
B8: ICOSL ECD Truncation #7 with N52H/N57Y/Q100R/F172S and F83S, Fc fusion (Fc fusion)
chain: DTQEKEVRAMVGSDVELSCACPEGSRFDLNDVYVYWQTSESKTVVTYHIPQHSSLEYVDSRYRNRALMSPAGMLRGDFSLRLSNVTPQDEQKFHCLVLSRSLGFQEVLSVEVTLHVAANFSVPVVSAPHSPSQDELTFTCTSINGYPRPNVYWINKTDNSLLDQALQNDTVSLNMRGLYDVVSVLRIARTPSVNIGCCIENGGGGSGGGGSEPKSSDKTHTCPPCPAPEAEGAPSVFLFPPKPKDTLMISRTPEVTCVVVDVSHEDPEVKFNWYVDGVEVHNAKTKPREEQYNSTYRVVSVLTVLHQDWLNGKEYKCKVSNKALPAPIEKTISKAKGQPREPQVYTLPPSREEMTKNQVSLTCLVKGFYPSDIAVEWESNGQPENNYKTTPPVLDSDGSFFLYSKLTVDKSRWQQGNVFSCSVMHEALHNHYTQKSLSLSPG
notes: Made in CHO cells; F83S is an additional mutation found later in the clone
B9: ICOSL IgV with N52H/N57Y/Q100R and H48R/S54P, Fc fusion (Fc fusion)
chain: DTQEKEVRAMVGSDVELSCACPEGSRFDLNDVYVYWQTSESKTVVTYRIPQHSPLEYVDSRYRNRALMSPAGMLRGDFSLRLFNVTPQDEQKFHCLVLSRSLGFQEVLSVEVTLHVAANFSVGGGGSGGGGSEPKSSDKTHTCPPCPAPEAEGAPSVFLFPPKPKDTLMISRTPEVTCVVVDVSHEDPEVKFNWYVDGVEVHNAKTKPREEQYNSTYRVVSVLTVLHQDWLNGKEYKCKVSNKALPAPIEKTISKAKGQPREPQVYTLPPSREEMTKNQVSLTCLVKGFYPSDIAVEWESNGQPENNYKTTPPVLDSDGSFFLYSKLTVDKSRWQQGNVFSCSVMHEALHNHYTQKSLSLSPG
notes: Made in CHO cells. '554P' is read as S54P; also called ICOSL IgV with N52H/N57Y/Q100R and H48R/554P
B10: variant ICOSL ECD-Fc N52H/N57Y/Q100R/F172S, AAA linker, Fc C220S/E233P/L234V/L235A/G236del/S267K (SEQ ID NO: 44) (Fc fusion)
chain: DTQEKEVRAMVGSDVELSCACPEGSRFDLNDVYVYWQTSESKTVVTYHIPQHSSLEYVDSRYRNRALMSPAGMLRGDFSLRLFNVTPQDEQKFHCLVLSRSLGFQEVLSVEVTLHVAANFSVPVVSAPHSPSQDELTFTCTSINGYPRPNVYWINKTDNSLLDQALQNDTVSLNMRGLYDVVSVLRIARTPSVNIGCCIENVLLQQNLTVGSQTGNDIGERDKITENPVSTGEKNAATAAAEPKSSDKTHTCPPCPAPPVAGPSVFLFPPKPKDTLMISRTPEVTCVVVDVKHEDPEVKFNWYVDGVEVHNAKTKPREEQYNSTYRVVSVLTVLHQDWLNGKEYKCKVSNKALPAPIEKTISKAKGQPREPQVYTLPPSREEMTKNQVSLTCLVKGFYPSDIAVEWESNGQPENNYKTTPPVLDSDGSFFLYSKLTVDKSRWQQGNVFSCSVMHEALHNHYTQKSLSLSPGK
notes: Made in 293 cells; Fc or allotypes thereof
B11: variant ICOSL ECD-Fc N52H/N57Y/Q100P, AAA linker, Fc C220S/E233P/L234V/L235A/G236del/S267K (SEQ ID NO: 44) (Fc fusion)
chain: B10 chain with R100P, S172F
notes: as for B10
B12: variant ICOSL ECD-Fc N52H/N57Y/Q100P, AAA linker, Fc C220S/L234A/L235E/G237A (SEQ ID NO: 40) (Fc fusion)
chain: DTQEKEVRAMVGSDVELSCACPEGSRFDLNDVYVYWQTSESKTVVTYHIPQHSSLEYVDSRYRNRALMSPAGMLRGDFSLRLFNVTPQDEQKFHCLVLSPSLGFQEVLSVEVTLHVAANFSVPVVSAPHSPSQDELTFTCTSINGYPRPNVYWINKTDNSLLDQALQNDTVFLNMRGLYDVVSVLRIARTPSVNIGCCIENVLLQQNLTVGSQTGNDIGERDKITENPVSTGEKNAATAAAEPKSSDKTHTCPPCPAPEAEGAPSVFLFPPKPKDTLMISRTPEVTCVVVDVSHEDPEVKFNWYVDGVEVHNAKTKPREEQYNSTYRVVSVLTVLHQDWLNGKEYKCKVSNKALPAPIEKTISKAKGQPREPQVYTLPPSREEMTKNQVSLTCLVKGFYPSDIAVEWESNGQPENNYKTTPPVLDSDGSFFLYSKLTVDKSRWQQGNVFSCSVMHEALHNHYTQKSLSLSPGK
notes: as for B10
B13: variant ICOSL ECD-Fc N52H/N57Y/Q100R/F172S, AAA linker, Fc C220S/L234A/L235E/G237A (SEQ ID NO: 40) (Fc fusion)
chain: B12 chain with P100R, F172S
notes: as for B10

target: T2, human CTLA-4 (human, UniProt P16410 36-223); test: flow cytometry, cells with human CTLA-4; protein from CHO
T2 construct: whole, on cells
T2 sequence (P16410 36-223): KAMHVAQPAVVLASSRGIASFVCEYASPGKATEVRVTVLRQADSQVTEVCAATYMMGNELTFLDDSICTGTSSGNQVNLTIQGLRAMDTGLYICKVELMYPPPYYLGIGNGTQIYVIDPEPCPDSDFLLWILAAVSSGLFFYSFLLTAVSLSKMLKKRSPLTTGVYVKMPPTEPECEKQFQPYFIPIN

MFI [MFI] | MFI (ΔWT) [fold vs WT] | Binder
133000 | 17.5 | B1
 | 31.6 | B2
 | 42.3 | B3
83700 | 11 | B4
216000 | 28.5 | B5
 | 40.7 | B6
236000 | 31.1 | B7
 | 27.3 | B8
 | 42.4 | B9

target: T2, human CTLA-4; test: flow cytometry, Expi293 cells with human CTLA-4
From the text: (§1) Expi293 cells transfected with cognate binding partners, human CD28, ICOS and CTLA4, were used as target cells in binding studies.

MFI (ΔWT) [fold vs WT] | Binder
20.5 | B10
33.5 | B11
18.2 | B12
20.6 | B13

target: T1, human ICOS; test: flow cytometry, cells with human ICOS; protein from CHO

MFI [MFI] | MFI (ΔWT) [fold vs WT] | Binder
139000 | 1.4 | B1
 | 0.9 | B2
 | 1.1 | B3
54600 | 0.5 | B4
110000 | 1.1 | B5
 | 1.3 | B6
91400 | 0.9 | B7
 | 1.1 | B8
 | 1.4 | B9

target: T3, human CD28 (human, UniProt P10747 19-220); test: flow cytometry, cells with human CD28; protein from CHO
T3 construct: whole, on cells

MFI [MFI] | MFI (ΔWT) [fold vs WT] | Binder
59200 | 34.3 | B1
 | 52.8 | B2
 | 46.6 | B3
38900 | 22.5 | B4
86300 | 50 | B5
 | 62.4 | B6
84600 | 49 | B7
 | 51.1 | B8
 | 43.6 | B9

target: T3, human CD28; test: flow cytometry, Expi293 cells with human CD28
From the text: as §1

MFI (ΔWT) [fold vs WT] | Binder
10.9 | B10
13.3 | B11
13.1 | B12
12.5 | B13

target: T1, human ICOS; test: flow cytometry, Expi293 cells with human ICOS
Protocol: Binding studies were carried out on transfected HEK293 cells generated to express the full-length mammalian (human) surface ligands, CD28, ICOS or CTLA-4, using a transient transfection system (Life Technologies, USA). As a control, binding to mock (non-transfected) cells also was assessed. For staining by flow cytometry, 200,000 cells of appropriate transient transfection or negative control (mock) were plated in 96 well round bottom plates, and, then incubated in staining buffer (PBS, phosphate buffered saline; 1% BSA, bovine serum albumin; and 0.1% sodium azide) for 20 minutes to block non-specific binding. Cells were resuspended in staining buffer containing 100 nM to 1 nM variant immunomodulatory protein in 50 μL. Mean Fluorescence Intensity (MFI) was calculated for each transfectant and negative parental line with Cell Quest Pro software (Becton Dickinson, USA) or a Hypercyt flow cytometer (Intellicyte, USA).
as §1

MFI (ΔWT) [fold vs WT] | Binder
1.3 | B10
1.3 | B11
1.2 | B12
1.3 | B13

— US20220218785A1 (ALPINE IMMUNE SCIENCES, published 2022)
